Paper PMC2935574 (The Journal of Cell Biology, 2010)
Where “and” joins values, the source holds several entries; their conditions need not be identical. Equal entries are not always repeated.

T1: SPC25^70–224 (human, UniProt Q9HBM1 70-224)
T1 sequence (looked up): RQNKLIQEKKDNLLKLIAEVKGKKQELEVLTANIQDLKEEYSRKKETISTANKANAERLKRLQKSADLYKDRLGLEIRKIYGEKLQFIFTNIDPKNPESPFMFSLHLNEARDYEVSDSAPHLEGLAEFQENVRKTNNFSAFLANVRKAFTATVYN

T2: DSN1 (subunit of MIS12C, hexahistidine tag) (human, UniProt Q9H410 1-356)
T2 sequence (looked up): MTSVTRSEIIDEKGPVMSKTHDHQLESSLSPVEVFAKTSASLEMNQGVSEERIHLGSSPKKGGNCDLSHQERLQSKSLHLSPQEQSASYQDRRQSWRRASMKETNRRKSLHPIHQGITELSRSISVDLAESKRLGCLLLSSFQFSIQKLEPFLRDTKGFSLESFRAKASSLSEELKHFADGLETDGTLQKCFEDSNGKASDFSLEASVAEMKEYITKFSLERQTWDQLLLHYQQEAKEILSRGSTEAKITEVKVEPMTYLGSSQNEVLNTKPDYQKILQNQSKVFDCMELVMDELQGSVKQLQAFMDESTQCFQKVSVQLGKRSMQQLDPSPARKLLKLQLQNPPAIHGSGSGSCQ

T3: KNL1^2106–2316 (C-terminal region of KNL1) (human, UniProt Q8NG31-2 2106-2316)
T3 sequence (looked up): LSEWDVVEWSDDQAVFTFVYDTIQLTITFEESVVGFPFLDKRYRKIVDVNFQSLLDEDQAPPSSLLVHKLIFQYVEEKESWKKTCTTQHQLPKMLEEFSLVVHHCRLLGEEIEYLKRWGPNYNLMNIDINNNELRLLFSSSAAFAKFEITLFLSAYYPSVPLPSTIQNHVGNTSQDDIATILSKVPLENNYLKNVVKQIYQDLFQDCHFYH

B1: SPC24^57–197–SPC25^70–224 (complex, human)
chain 1: TMEKEVAQSLLNAKEQVHQGGVELQQLEAGLQEAGEEDTRLKASLLQLTRELEELKEIEADLERQEKEVDEDTTVTIPSAVYVAQLYHQVSKIEWDYECEPGMVKGIHHGPSVAQPIHLDSTQLSRKFISDYLWSLVDTEW
chain 2: T1 sequence (looked up)
B2: SPC24^57–197 (domain or fragment, human, UniProt Q8NBT2 57-197, looked up)
chain: B1 chain 1
B3: MIS12C^NSL1-227 (MIS12 complex with a more extensive C-terminal deletion of NSL1) (complex, human)
chain 1: MSVDPMTYEAQFFGFTPQTCMLRIYIAFQDYLFEVMQAVEQVILKKLDGIPDCDISPVQIRKCTEKFLCFMKGHFDNLFSKMEQLFLQLILRIPSNILLPEDKCKETPYSEEDFQHLQKEIEQLQEKYKTELCTKQALLAELEEQKIVQAKLKQTLTFFDELHNVGRDHGTSDFRESLVSLVQNSRKLQNIRDNVEKESKRLKIS
chain 2: MAEASSANLGSGCEEKRHEGSSSESVPPGTTISRVKLLDTMVDTFLQKLVAAGSYQRFTDCYKCFYQLQPAMTQQIYDKFIAQLQTSIREEISDIKEEGNLEAVLNALDKIVEEGKVRKEPAWRPSGIPEKDLHSVMAPYFLQQRDTLRRHVQKQEAENQQLADAVLAGRRQVEELQLQVQAQQQAWQALHREQRELVAVLREPE
chain 3: T2 sequence (looked up)
chain 4: MAGSPELVVLDPPWDKELAAGTESQALVSATPREDFRVRCTSKRAVTEMLQLCGRFVQKLGDALPEEIREPALRDAQWTFESAVQENISINGQAWQEASDNCFMDSDIKVLEDQFDEIIVDIATKRKQYPRKILECVIKTIKAKQEILKQYHPVVHPLDLKYDPDPAPHMENLKCRGETVAKEISEAMKSLPALIEQGEGFSQVLRMQPVIHLQRIHQEVFSSCHRK
B4: MIS12C–KNL1^2106–2316 (five-subunit complex) (complex, human)
chain 1: B3 chain 1
chain 2: B3 chain 2
chain 3: T2 sequence (looked up)
chain 4: MAGSPELVVLDPPWDKELAAGTESQALVSATPREDFRVRCTSKRAVTEMLQLCGRFVQKLGDALPEEIREPALRDAQWTFESAVQENISINGQAWQEASDNCFMDSDIKVLEDQFDEIIVDIATKRKQYPRKILECVIKTIKAKQEILKQYHPVVHPLDLKYDPDPAPHMENLKCRGETVAKEISEAMKSLPALIEQGEGFSQVLRMQPVIHLQRIHQEVFSSCHRKPDAKPENFITQIETTPTETASRKTSDMVLKRKQTKDCPQRKWYPLRPKKINLDT
chain 5: T3 sequence (looked up)
B5: MIS12C^NSL1-258 (MIS12 complex with NSL1 residues 1–258) (complex, human)
chain 1: B3 chain 1
chain 2: B3 chain 2
chain 3: T2 sequence (looked up)
chain 4: MAGSPELVVLDPPWDKELAAGTESQALVSATPREDFRVRCTSKRAVTEMLQLCGRFVQKLGDALPEEIREPALRDAQWTFESAVQENISINGQAWQEASDNCFMDSDIKVLEDQFDEIIVDIATKRKQYPRKILECVIKTIKAKQEILKQYHPVVHPLDLKYDPDPAPHMENLKCRGETVAKEISEAMKSLPALIEQGEGFSQVLRMQPVIHLQRIHQEVFSSCHRKPDAKPENFITQIETTPTETASRKTSDMVLKR
B6: MIS12 (subunit of MIS12C) (natural protein, human, UniProt Q9H081 1-205, looked up)
chain: B3 chain 1
B7: NSL1^227–281 (C-terminal tail of NSL1) (domain or fragment, human, UniProt Q96IY1 227-281, looked up)
chain: KPDAKPENFITQIETTPTETASRKTSDMVLKRKQTKDCPQRKWYPLRPKKINLDT

Columns and labels:
[1] = target: fluorescein-labeled synthetic peptides encompassing residues 205–217 or 202–219 of NSL1; assay: fluorescence polarisation
[2] = target: B5; assay: AUC
[3] = target: B5; assay: ITC
SPC25^70–224 = target: T1, SPC25^70–224; assay: AUC
[4] = target: T4, NDC80 complex (four-subunit NDC80C) (human, UniProt O14777 1-642; Q9BZD4 1-464; Q8NBT2 1-197; Q9HBM1 1-224); assay: SEC
T4 sequence (O14777 whole entry, chain 1 of 4): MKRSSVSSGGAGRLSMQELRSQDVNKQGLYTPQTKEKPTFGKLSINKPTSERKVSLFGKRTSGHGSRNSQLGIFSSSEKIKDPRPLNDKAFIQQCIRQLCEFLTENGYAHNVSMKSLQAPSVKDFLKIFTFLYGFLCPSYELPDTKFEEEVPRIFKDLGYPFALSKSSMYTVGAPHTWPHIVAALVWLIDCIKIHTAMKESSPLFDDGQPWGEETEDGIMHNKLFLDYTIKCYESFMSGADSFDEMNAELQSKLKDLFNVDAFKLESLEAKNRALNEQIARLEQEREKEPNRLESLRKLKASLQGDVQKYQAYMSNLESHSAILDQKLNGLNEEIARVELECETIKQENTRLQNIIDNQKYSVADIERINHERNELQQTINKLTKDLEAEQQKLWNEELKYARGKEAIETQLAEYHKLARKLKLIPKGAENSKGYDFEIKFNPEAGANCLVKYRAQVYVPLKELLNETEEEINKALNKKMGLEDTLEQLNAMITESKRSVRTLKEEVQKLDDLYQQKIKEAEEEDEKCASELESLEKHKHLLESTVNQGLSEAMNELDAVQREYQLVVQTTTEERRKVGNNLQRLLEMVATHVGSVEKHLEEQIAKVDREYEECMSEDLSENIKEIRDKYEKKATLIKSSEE
T4 sequence (Q9BZD4 whole entry, chain 2 of 4): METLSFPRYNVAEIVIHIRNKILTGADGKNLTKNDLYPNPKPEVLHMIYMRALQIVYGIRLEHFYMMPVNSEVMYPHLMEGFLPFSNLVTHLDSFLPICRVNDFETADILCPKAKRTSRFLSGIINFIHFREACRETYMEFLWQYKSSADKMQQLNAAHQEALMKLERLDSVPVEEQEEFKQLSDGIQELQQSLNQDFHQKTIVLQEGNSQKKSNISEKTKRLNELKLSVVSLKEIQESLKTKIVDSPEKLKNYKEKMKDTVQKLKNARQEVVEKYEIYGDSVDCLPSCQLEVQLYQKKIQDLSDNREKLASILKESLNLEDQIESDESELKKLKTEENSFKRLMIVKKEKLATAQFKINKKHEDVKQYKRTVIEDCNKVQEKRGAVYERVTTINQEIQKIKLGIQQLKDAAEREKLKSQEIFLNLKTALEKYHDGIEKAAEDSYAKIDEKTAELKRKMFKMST
T4 sequence (Q8NBT2 whole entry, chain 3 of 4): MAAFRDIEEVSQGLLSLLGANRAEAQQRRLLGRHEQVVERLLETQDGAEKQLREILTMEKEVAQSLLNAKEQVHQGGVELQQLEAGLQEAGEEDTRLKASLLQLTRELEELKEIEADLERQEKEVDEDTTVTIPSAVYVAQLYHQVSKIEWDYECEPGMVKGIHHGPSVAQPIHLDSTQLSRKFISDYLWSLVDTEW
T4 sequence (Q9HBM1 whole entry, chain 4 of 4): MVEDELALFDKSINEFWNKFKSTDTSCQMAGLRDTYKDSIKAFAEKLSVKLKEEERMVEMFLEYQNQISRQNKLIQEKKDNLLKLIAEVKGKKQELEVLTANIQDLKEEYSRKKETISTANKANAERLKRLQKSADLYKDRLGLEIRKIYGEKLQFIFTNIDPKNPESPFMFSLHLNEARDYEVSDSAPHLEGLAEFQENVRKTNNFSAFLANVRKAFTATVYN

[5] = target: T4, NDC80 complex (four-subunit NDC80C); assay: ITC
[6] = target: T2, DSN1 (subunit of MIS12C, hexahistidine …); assay: co-expression and co-purification
[7] = target: T3, KNL1^2106–2316 (C-terminal region of …); assay: ITC

Molecule: HP1^110–191 (chromoshadow domain of HP1-α) (from UniProt P45973 110-191) (domain or fragment)
- Kd [1]: 400 to 500 nM

Molecule: B1
- stoichiometry N [2]: 1
- Kd [3]: ~10 nM

Molecule: B2
- stoichiometry N (SPC25^70–224): 1

Molecule: B3
- binding result [4]: binds

Molecule: B4
- Kd [5]: 4 nM

Molecule: B5
- Kd [5]: ~10 nM

Molecule: B6
- binding result [6]: binds

Molecule: B7
- Kd [7]: ~63 nM and ~130 nM
- stoichiometry N [7]: 1
